In PMC7164768:

Biological target: Thermotoga maritima SecYEG complex, Se-Met derivatized (Thermotoga maritima) (UniProt Q9X1I9)
Assay: crystal structure

Chain of Thermotoga maritima SecYEG complex, Se-Met derivatized (Thermotoga maritima) (Q9X1I9 whole entry, chain 1 of 3): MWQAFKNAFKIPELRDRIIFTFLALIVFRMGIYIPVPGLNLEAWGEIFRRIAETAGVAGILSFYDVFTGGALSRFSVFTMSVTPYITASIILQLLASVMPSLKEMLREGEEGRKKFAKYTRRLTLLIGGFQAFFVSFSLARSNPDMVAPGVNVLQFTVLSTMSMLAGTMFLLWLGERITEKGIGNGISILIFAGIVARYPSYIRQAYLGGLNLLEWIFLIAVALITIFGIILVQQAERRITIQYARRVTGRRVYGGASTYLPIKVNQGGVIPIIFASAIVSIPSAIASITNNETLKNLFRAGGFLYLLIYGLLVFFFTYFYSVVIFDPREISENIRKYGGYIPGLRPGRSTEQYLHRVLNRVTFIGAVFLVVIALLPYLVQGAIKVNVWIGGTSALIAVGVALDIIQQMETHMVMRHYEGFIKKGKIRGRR
Chain of Thermotoga maritima SecYEG complex, Se-Met derivatized (Thermotoga maritima) (P35874 whole entry, chain 2 of 3, further chain): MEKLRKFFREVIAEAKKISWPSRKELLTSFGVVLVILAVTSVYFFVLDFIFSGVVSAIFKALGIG
Chain of Thermotoga maritima SecYEG complex, Se-Met derivatized (Thermotoga maritima) (Q9WYU9 whole entry, chain 3 of 3, further chain): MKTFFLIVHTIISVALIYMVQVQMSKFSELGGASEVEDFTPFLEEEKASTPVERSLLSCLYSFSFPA

stoichiometry N (SecA per SecY complex): 1
Substance: Thermotoga maritima SecA (from UniProt Q9X1R4 1-871) (enzyme)
